assay: soluble on expression in E. coli; label from the status in PepcDB or PDB records

Soluble on expression in E. coli, not soluble:
MGSDKIHHHHHHMSKRQFGLIYISSYQARLFIVDLKKLAIIEQLSSVQFVQGGKKFEVYENELPRLTDALIGFKRKIAEYGIDNYKVYGNRQLLDKISARYLADQIKVRTGLEIEWLNGAQIAYYKIIAGMALPQFSELADDEFTYLLSMGSAMLNLTLFKGQHYLSTWNFALGPEEIEEMAAMTRDTPSDPIDIIGDYISRKLVSFKTIEKPTGKARIIIQHVFGRGEQSLRPQEKARVIDLKQFAGVYSDFREAPDQYLMEKYELDTDSLARMKPTIVLINQLVKIIKPHMMTLTQSSAITGLMIQEAARLKYRPDEYSTIVLTATKNIARRYESGGQHINLSNKFALHIFDRLAHAGMVDRRDRQLLEIAARLHDIGNFINFHNHYEHAAYIVGANQIIGLSDRENEMLLSILKHQDITNLNADEREYRHLDPALQVRVAKLAAILRLANSLDASRKQKISKIVVSIKDEKMLIVVTSKRDLTLERWVFEKNVNLAEAVFGMKIAMKQKRGK, MGSDKIHHHHHHMSLKQMECVVAVAKLRSFTKAAAKLKVAQPSLSQSIQAVEKQVGVPLFDRSTFPITLTHAGEVYVAKANAIIELYKDLNTQMCDVIGSDKGPLRLGFSQTGYQFIPTALAKFCKRFPCADLRVVQVFSTLKLEKMLSEGDIDIATLVLPLSSPEIDYKIIKENQAFLALPITHPLSQKAIREAQDSPSVSLEELKEERFILPKSTQRSRPIFDEIFRKAGFEPKIFCETETFDIANAIVASGVGACFTLPQFIKEDKQDKVVLFHVDEPLLARTVVLAYRKDKHLSKMACEFLTIARSL, MGSDKIHHHHHHMSLSRNSDLHMHSTASDGGYSPTELMEKCHQANLKFVALTDHDTVNGIEEAKQTAHRLGFILIPGIELSTKASGQSVHMLGYGIDWKNDTLKRRLDRQQDIRKQRLEQILLKLKAAGVPLEQDAVLRYADGGAIGRPHVAKALMDKGYVRSVQEAFEHYLAEGRPCYVKRQEYISVEQAIAWIHQAGGVAIVAHPGYYDLDDQLIGWVREYGLDGIEVYHRDHSREVVAHYEQLCKRMEAETGRRLLRTGGSDFHHESYGRTAAPLGTTRIPDQLTYELLHDLERKKTRA, MGSDKIHHHHHHMSMPSIDIEPTPRTLRTLALFDLDHTLLDVDSDYLWGEYIVKHNLVDEAQYRTANQKFYNDYIEGRLDATEYNEFVAQFLSSLPMGRLHELREDYIKSEIEPHIRPKAMEVLCQHVEEGHDVVIISATNDFVVSAIAKRFGIEDGNVLSTPLEIKDKRYTGKLTDKPNFKEGKIYHLDKWIGKQQLAGIHFNKTYAYSDSKNDIPLLEWADVAICVSPDAALHAHALSHRWAVEDWSI, MGSDKIHHHHHHMSNAKRLLVSDMKMGVDISENELLRQSEGLLQRLLFDHTTQRNIFWATDDYTTLGDAYKYDAPITTDSITGEHDTVIQPRVLKSKEEQANRTKDKAEVFTPSWVCNAQNNLIDEAWFGRKDVFNIEQPETKTWIATTEPITFPEGKTWKDYVCSTRMEITCGEAPYLVSRYDTTTGEFIPIPQRIGMLDRKLRIISENTSSTGEWLKMAQKAYKNIYAYEWQGDNLLLAREALLITFIEYYEEKFGKRPLDKSIEYIAYIISWNVWQMDGLKGVVPNSCTHGVSVLPDDLFESMEELILCPGCQNESIKKHNGTYCLIRDWGCKDPKTGENNRKIRFVDLIKNNI, MGSDKIHHHHHHMSNPLLKQICELDVFTLLVFKSIFDNGHANSAAKALNVSAPKISRCLNALRLTFNDELFYRRQQGLKPTPLAESLYVAICQFTDAVHHLEQSALQLQHSASHVELPLHIAASNGLLSFLAPQLSSPEVISELGQIRLHKWQDNSAELIHAGELDLGITQEPVETKELTITHLGSIASVYIVASKHHPLWESQFDITLEQICRHSFLCLEMKGFNARIDPLELFCQRQGLLLPSIERVIDREEWYAHLLTMQSVAFCSSIDMHTVKHMPGLKLVPLSVSELHRLHETIMPPQYFLIEKPRSHRRYNQTQCELVVRSWLTVLSSNSRVSQ, MGSDKIHHHHHHMSNQKIIRLSPNPQDFGHDCDDLDPQMFASELPVQHTHVYYEDDNLGLYIGVWDTSTMVEAAAPSPCDEFMYLLEGEVEIKNSKTGTMEKVQAGEAFVIPKGYDCQWHQTGYLRKFFVISEHPKEDIPTTPVVEGIIKLKVNNSSQMAIEDSTGVEIEPTNTPFVIKGKEPAQKHLPSYKDHTGKFIAGTWHSEAFNSEMQPFPRNEFIYLQSGSLVITEQEGDEQVFTAGDAFFVPQGALCSWRSIGDVHTFYAILQSS, MGSDKIHHHHHHMSNTDKYYRDRSHITGKLDLQKLPKAIREKQYGIDVREAMAQTAEAIAGVQSTAQKFNQDTKNQVNQLDEKYTREIRAIVLGDTTSVATPPIQEPNSEASNPLSNLYETARGQVLYDFVKQSSLTKVSKIGVIGDSVAATAGGFPDILAHQYNIYVENLSVGGAKMSDYNHDAIVNQASRLQQCDVVIIQGTDDDWVHDISLGYAGDTNIKTYLGGLRETIKRVKNNNPKAKLIVVNCTRQCVDVHGKYRTEQSKNTFGLTLIDYMEAQKKYLNQQDVPYVDLMKPTSIFEPDNPAFKKTMMHDGLHPTPEAHQYIVQEIAKDYSYYYDK, MGSDKIHHHHHHMSPLFTNSEIISRVIKEHFNKNLDHYDGVKFSFMVLNKKNPSQMIIISSYPDEWVNLYKENKYQHIDPVVLASFNKISPFSWEKSLVINTRLQLAKIFDLSKKYDIINGYTFVLHDHGDNLAMLSIIVDNSYPDDVETFIEERKDIFQMLLIEAYEKIISLCKEMIGNKKQLNNKEIFSQRENEILYWASMGKTYLEVAIILGIKTSTVKFHIGNVVKKLGVLNAKHAIRLGVELQLIKPVQ, MGSDKIHHHHHHMSQLLIKNAYLITMNADREVYENGSILIENNIIKEVGKFDINIVDKDAEIYDAKGKILMPGLVNTHVHLSQQLGRGLADDVVLLTWLRERIWPYESSFNYEDSLISSTACCVELIKSGVTTFLESGGQYVDAMVEAVDKTGLRACLAKSVMDTGDGLPEAWQKTTDEEINTQLDLFHKFNNTSNERIKIWFALRTIFNTTEELLVRTKELADKYNTGIHMHIAEIADEISFVKQNNGVGTVEYLDKLGVLGPNLLAAHTVWLTHKEIDLFRLHDVKVSHDPGSAMKVVLGFASIPEMLEKGIPVSIGTDGAPSNNRMDLMRDMYLTSLIHKGRTLNPTVVPAEEVLEMATINGAKCALLEKEIGSLEVGKKADMIILNPDTIHCLPMHNPIGNIVYSMTSENVDSTICDGKWLMKERKVLVVDESELLNKVKKQASKIKDKAEVKIPSKFKIIK, MGSDKIHHHHHHMSQSIRQAVMQASQAWIADFNRQAFADCIARYLPEAQMQVSPFGRFDGVEAISQFWLGFAQQNPGELVYRNVEIKVLSDSQAILSANWRMNIASGFISKELWTLADDGHWYLEEDDFSVLTQLSEPLAPRMRSALVLVDLQNDYFKGGRFALDNCEAAAANAAKLLHHFRSNQLPVIHVQHIFKDPEASFFQAGTQGVEIADMVAPKGNEPVIIKHYVDSFIDTALSQTLIEMGIDKLVVVGAMAQACVQTLCRSAVKAGFECEVISDAIAAPSLSWESQDLSGEQLVAANLISLSFGGAKALSLDDWLILERLAG, MGSDKIHHHHHHMSQYAEMSLVYDQLTQDQPYEKWFEIVKNHCKDESNILDIGCGTGSLTVQLEALGNVTGMDLSVDMLTVAAQKSANVNWLEGDMTSFDLQQQFDIITIFCDSLNYLQDETAVIETFINVYHHLTDSGVFIFDVHTVYKMMTLFNNQSYIDDKGDIFLAWDAVQGDLPLSVYHDMTFFIRHEDETYSRFDESHFQRTFDEKTYLSWLAQVGFKHVETFTDFNIDEHNEDTERLFFIAKK, MGSDKIHHHHHHMSRPAITAIPVFKLYGETTAWPTPDLIHCESIPERSRMHDWEIKPHRHGDLVQLLYVQSGKAMLKVEDRVRKVETASLQVVPALSVHTFRFAEDIQGHILSLAKPLVEQLETTLDSSAMRTARCYELGADSHYVDTLFSAIAREYRQPRAGRDLMLHSLINVLVVWLSRRNSEEAGEQVQTMDRGREHLQVFMHQLETCFREHWSIEQHAQAMGISAAHLNALCRRLCDQSALQIISQRLLLEAKRNLIYTTLTINQVSDSLGFSEPAYFSRFFKRATGQSPREFRQQK, MGSDKIHHHHHHMSRVNELVGTLFTGGRKPDDLYGRVFVVSAFGGITNLLLEHKKTGEPGVYARFADAESDHGWHEALSRVGDEMRKAHEAVLENAGDVAQADAFVSERIEGARNCLIDLQRLCSYGHFRLAEHMLQIRELLSGLGEAHSAYVTALLLQRAGVNARFVDLSGWRDEGDVTLEERISSALNDVDPATEMPIVTGYAQCAEGLMREFDRGYSEVTFSCLAALTGASEAIIHKEFHLSSADPKLVGEGVAQKLGHTNYDVADQMSNMGMEAIHPKAAKTLRQADVPLRVTNAFEPEDPGTLIDDKPADQPAVEMITGLDIIALELFEQDMVGVKGYDAAILEVLTRHDVRIVSKTSNANTITHYLDTSLTVLKRVEKDLAKIYPNADISARLLSMASAIGRDLKGLSVLTRGLQAIADVGLASLGASQGPRNVDVQFIVEREDLKPVISALHKVLVEGRPAKQEKPIKAAA, MGSDKIHHHHHHMSRYVIRTYKVPVPVELYPLCSELNRIAARIYNKTMSLVKKIKNKKGFWLSPNTAQKYILRWSSAIDIHTHSKQAMVQLYFQALNSYFVAVKTNPHAKPPYKRKNFLPFIWKNQAIKLLPDGKVKLSMGRNREPFVIPTTLPAGTTIRQAKLVYEAGRYYLHLAIEVKSEHKRGQSQKVMSVDVGILRPITCFDGSEVISYHGGVLNSILRYRNKRLADIQRALSRCQKGSRRYKKLSRAKRRVLYKTRNQINDVLHKITSHFIGLCVQKNIGTIVVGDITNIRERTNGNDNFNQKLHQWAFRKLMSQIEYKAQIFGIEVVRISEAHTSKTCPVCGTQNRPSGRNYKCAGCGFEYHRDGVGAINIWKRYLGTKSQVVAGLAPARGVRFNPHLCGHGAISAPWKAA, MGSDKIHHHHHHMSSDSVIRVSNLGKRYEIYAQPKDRLKQMVMPRLKRMIGMHPPEYFREFWALRGVSFEVRRGETVAIIGQNGSGKSTLLQLVCGTLFPTNGDIQVKGRIAALLELGAGFNPEFTGEENIYLSGLLYGISEDELRNRFDSIVEFAEIGEFISQPVKTYSSGMYVRLAFAIAAHVDADMLVVDEALSVGDVRFTQKCMRFLREFQKTGTLLFVSHDVGAVTSLCSRAIWLNQGVLKMDGPAKETVEAYLAEQHALDRGQRGDVVQLAKAREKVAKQPAKAANPPVVDVVDQRWEALRANGSGTRIEVFEFMPDSSESEFGARGATIERVALRNEAGEDLPIVQGGELVDLYIESRSHQALAGLIFGFYLKDRLGQRLFGDNTFMTYADREVRSQAGDTHIARFRFRMPIMPVGAYSFDVAIATGNQHDHTQQHWIHDALSMRAVDSTMRHGLVGIPMLEIAISKEG

Soluble on expression in E. coli, soluble:
MGSDKIHHHHHHMSNHSSSIPELSDNGIRYYQTYNESLSLWPVRCKSFYISTRFGQTHVIASGPEDAPPLVLLHGALFSSTMWYPNIADWSSKYRTYAVDIIGDKNKSIPENVSGTRTDYANWLLDVFDNLGIEKSHMIGLSLGGLHTMNFLLRMPERVKSAAILSPAETFLPFHHDFYKYALGLTASNGVETFLNWMMNDQNVLHPIFVKQFKAGVMWQDGSRNPNPNADGFPYVFTDEELRSARVPILLLLGEHEVIYDPHSALHRASSFVPDIEAEVIKNAGHVLSMEQPTYVNERVMRFFNA

Reference: the DeepSol protein solubility set
